Results: patent US20220251215A1

Legend:
[1] = target: HLA.A2 with NY-ESO-1: 157-165 on IM9 cells; experiment: cell-based or functional assay
[2] = target: HLA.A2/hB2M/NY-ESO-1: 157-165 WT on 3T3 cells (human) (UniProt P04439); experiment: cell-based or functional assay

| Binder | Max Fold (RLU), NFAT-luciferase [1] | EC50 (#of APC cells), NFAT-luciferase [2] | Max Fold (RLU), NFAT-luciferase [2] |
| --- | --- | --- | --- |
| NY-ESO CAR-T 24958N VL-VH (protein, part only; not given: scFv linker, hinge, signalling domains, not shown: large carriers) chain, part: DIQMTQSPSSLSASVGDRVTITCRTSQSISRYLNWYQQKPGKAPKLLIFAASSLQSGVPSRFSGSGSGADFTLTISSLQPEDFATYYCQQSYSTPPITFGQGTRLEIKQVQLQESGPGLVKPSQTLSLTCTVSGGSIISDGYYWSWIRQHPGKGLEWIGYVDYSGNTYYNPSLKSRIIMSVDTSKNQFSLKLTSVTAADTAVYFCVREGPLRDAFEIWGQGTMVTVSS | 0.9 fold | 19900 APC cells | 6.4 fold |
| NY-ESO CAR-T 24958N VH-VL (protein, part only; not given: scFv linker, hinge, signalling domains, not shown: large carriers) chain, part: QVQLQESGPGLVKPSQTLSLTCTVSGGSIISDGYYWSWIRQHPGKGLEWIGYVDYSGNTYYNPSLKSRIIMSVDTSKNQFSLKLTSVTAADTAVYFCVREGPLRDAFEIWGQGTMVTVSSDIQMTQSPSSLSASVGDRVTITCRTSQSISRYLNWYQQKPGKAPKLLIFAASSLQSGVPSRFSGSGSGADFTLTISSLQPEDFATYYCQQSYSTPPITFGQGTRLEIK | 1 fold | 24500 APC cells | 6.7 fold |

Second part, the binder after the results:

| Max Fold (RLU), NFAT-luciferase [1] | EC50 (#of APC cells), NFAT-luciferase [2] | Max Fold (RLU), NFAT-luciferase [2] | Binder |
| --- | --- | --- | --- |
| 0.8 fold | 24000 APC cells | 28.6 fold | NY-ESO CAR-T 24959N VL-VH (protein, part only; not given: scFv linker, hinge, signalling domains, not shown: large carriers) chain, part: DIQMTQSPSSLSASVGDRVTITCQASQDISNYLKWYQQKPGKAPKILIHDASNLEIGVPSRFSGSGAGTDFIFTISSLQPEDIGTYYCQQYDNLPITFGQGTRLEIKQLQLLESGPGLVKPSETLSLICTVSGGSIRGSSYYWGWIRQPPEKGLEWIGSIYSSGSTYYNPSLKSRVTISADTSKNQFSLKLSSVTAADTAVYYCARHGGITAVQLEFDPWGQGTLVTVSS |
| 1.1 fold | 14200 APC cells | 13.3 fold | NY-ESO CAR-T 24959N VH-VL (protein, part only; not given: scFv linker, hinge, signalling domains, not shown: large carriers) chain, part: QLQLLESGPGLVKPSETLSLICTVSGGSIRGSSYYWGWIRQPPEKGLEWIGSIYSSGSTYYNPSLKSRVTISADTSKNQFSLKLSSVTAADTAVYYCARHGGITAVQLEFDPWGQGTLVTVSSDIQMTQSPSSLSASVGDRVTITCQASQDISNYLKWYQQKPGKAPKILIHDASNLEIGVPSRFSGSGAGTDFIFTISSLQPEDIGTYYCQQYDNLPITFGQGTRLEIK |
